Patent US20020142392A1 (WA PHARM, published 2002)

T1: human melanocyte stimulating hormone receptor (MSH receptor), polypeptide of SEQ ID NO:2 (human, UniProt Q01726 1-317)
T1 construct: also called 11D cDNA product; expressed MSH receptor
T1 sequence: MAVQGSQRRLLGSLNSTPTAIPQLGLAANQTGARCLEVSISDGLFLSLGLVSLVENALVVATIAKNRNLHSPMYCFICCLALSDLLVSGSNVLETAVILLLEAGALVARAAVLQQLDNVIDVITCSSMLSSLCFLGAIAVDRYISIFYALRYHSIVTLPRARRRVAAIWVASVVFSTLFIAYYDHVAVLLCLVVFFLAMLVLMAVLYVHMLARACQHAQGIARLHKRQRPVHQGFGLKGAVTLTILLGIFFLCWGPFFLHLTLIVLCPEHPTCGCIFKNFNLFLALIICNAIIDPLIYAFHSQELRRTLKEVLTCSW

T2: MC-2 receptor, polypeptide of SEQ ID NO:16 (human, UniProt P33032 1-325)
T2 construct: Tested on COS-7 cells transfected with pE-MC-2; also called MSH receptor subtype; pE-MC-2 transfected COS-7 cells
T2 chain: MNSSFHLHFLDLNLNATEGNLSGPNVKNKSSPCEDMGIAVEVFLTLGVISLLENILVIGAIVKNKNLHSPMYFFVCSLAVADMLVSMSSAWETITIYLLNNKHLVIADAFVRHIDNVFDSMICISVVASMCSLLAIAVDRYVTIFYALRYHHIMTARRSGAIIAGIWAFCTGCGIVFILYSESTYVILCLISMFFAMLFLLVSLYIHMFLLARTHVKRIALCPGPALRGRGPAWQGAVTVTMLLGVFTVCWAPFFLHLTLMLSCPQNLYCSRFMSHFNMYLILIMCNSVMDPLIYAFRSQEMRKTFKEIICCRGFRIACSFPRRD


How the values were obtained:
[1] = biological target: T1, human melanocyte stimulating hormone …; experiment: competition with 125I-NDP-MSH on pE-11D transfected COS-7 cells; Cheng-Prusoff from IC50
Procedure: (§1) 20877, USA). Eighty percent confluent cultures were transfected with 1 μg of pE-11D plasmid DNA and 40 μg lipofectin (BRL, 8400 Helgerman Court, Gaithersburg, Md. 20877, USA) in serum free medium. Five hours after transfection, serum containing medium was replaced, and cells were cultivated for 20 hours. Cells were then scraped off, centrifuged, resuspended in serum containing medium, plated on 48 well plates, and allowed to grow for 24 hours. […] Radioactivity was counted and data analyzed by iterative, non-linear curve fitting programme suitable for radioligand binding analysis (see FIG. 6). […] The Kᵢ-values were then calculated from the IC-50 values estimated thus estimated by using the Cheng and Prusoff equation, as previously described (Cheng and Prusoff 1973).

[2] = biological target: T2, MC-2 receptor, polypeptide of SEQ ID …; experiment: competition with 125I-NDP-MSH on pE-MC-2 transfected COS-7 cells; Cheng-Prusoff from IC50
Procedure: as §1, with “Eighty” for “20877, USA). Eighty”, “pE-MC-2” for “pE-11D”, “9).” for “6).”

[3] = biological target: T2, MC-2 receptor, polypeptide of SEQ ID …; experiment: competition with 125I-NDP-MSH on pE-MC-2 transfected COS-7 cells
Procedure: as §1, with “Eighty” for “20877, USA). Eighty”, “pE-MC-2” for “pE-11D”, “9).” for “6).”

Row | Ki [1] [nM] | Ki [2] [nM] | binding result [3] | Binder
1 | 0.17 | 929 | – | SYSMEHFRWGKPVGKKRRPVKVYPNGAEDESAEAFPLEF (peptide, UniProt P01189 138-176, looked up, domain: ACTH (1-39); Bought from Saxon Biochemicals GmbH; also called adrenocorticotropic hormone (1-39)) [ACTH (1-39)]
2 | – | – | no binding | YGGFMTSEKSQTPLVTLFKNAIIKNAYKKGE (peptide, UniProt P01189 237-267, looked up, domain: β-endorphin; Bought from Saxon Biochemicals GmbH; also called non-melanotropic POMC peptide β-endorphin) [β-endorphin]
3 | 22.4 | – | – | MEHFRWG (peptide, UniProt P01189 141-147, looked up, domain: ACTH (4-10); Bought from Saxon Biochemicals GmbH) [ACTH (4-10)]
4 | 0.449 | 1750 | – | DEGPYRMEHFRWGSPPKD (peptide, UniProt P01189 217-234, looked up, domain: β-MSH; Bought from Saxon Biochemicals GmbH; also called beta-melanocyte stimulating hormone) [β-MSH]
